This data set is described as follows: soluble on expression in E. coli; label from the status in PepcDB or PDB records.
Turning to “MTVIETPVKSVICMTSLQLSNFIKLDALSHVVGITSTRHLFNKEMNERLKQGKTAKIGIEGNFDNEVIMSVNPDVIFISPFKRGGYDAMREVGIPLVPHLGYKEMTPLGQAEWIKFIGLFIGEEETANRKFAAIEKHYNELKERVAHVKKRPVLEHHHHHH”, the “soluble on expression in E. coli” value was “not soluble”. Take “MDTEKLMKAGEIAKKVREKAIKLARPGMLLLELAESIEKMIMELGGKPAFPVNLSINEIAAHYTPYKGDTTVLKEGDYLKIDVGVHIDGFIADTAVTVRVGMEEDELMEAAKEALNAAISVARAGVEIKELGKAIENEIRKRGFKPIVNLSGHKIERYKLHAGISIPNIYRPHDNYVLKEGDVFAIEPFATIGAGQVIEVPPTLIYMYVRDVPVRVAQARFLLAKIKREYGTLPFAYRWLQNDMPEGQLKLALKTLEKAGAIYGYPVLKEIRNGIVAQFEHTIIVEKDSVIVTQDMINKST”: the “soluble on expression in E. coli” value was “soluble”.

Take “MKTTLFYIMFAYALSTAFPSMMLAQASSIAEVNQGQASKMVIDSSARVLSTLEQQRAQFRQDPKALRQFMETEFTTIFDRDYAARLVLGKYARNASDTDVKLFADAITENLMQRYGNALLTFEGKPNFRAKSESRLPGNRNVRVSTELIRSGADPVAVDYLLRNVNGQWKIFDVMIEGISYVQTFRNQFDAPLRQKGIAQVAAELRSGNLQVGKSNGKAAALEHHHHHH”: the “soluble on expression in E. coli” value is “soluble”. The value for “MKVGVIGASEMAGSAIYKLAKQNLEIDVTGIVRHESKAKKVLGDDAKLIVGDIFALSDNILDKFDVIIDAFGTDPKNAEEHVILAKKLINLVRKNKIRVIFILGAGSLHTGDDEHLVVDDIAQMDNADTWINTPRQQLKELEYLNSIDDVDWLGISPALQFEAGPATEYIEGTDELLYNKDGDSKLTSGTMATVVIKETVDSVHHQERITIANALEHHHHHH” was “soluble”; that for “MTVPDRSEIAGKWYVVALASNTEFFLREKDKMKMAMARISFLGEDELKVSYAVPKPNGCRKWETTFKKTSDDGEVYYSEEAKKKVEVLDTDYKSYAVIYATRVKDGRTLHMMRLYSRSPEVSPAATAIFRKLAGERNYTDEMVAMLPRQEECTVDEV” was “soluble”; that for “MVPLTEENVESVLDEIRPYLMSDGGNVALHEIDGNVVRVKLQGACGSCPSSTMTMKMGIERRLMEKIPEIVAVEALPDEETGLELNEENIEKVLEEIRPYLIGTADGSLDLVEIEDPIVKIRITGPAAGVMTVRVAVTQKLREKIPSIAAVQLI” was “soluble”. The value for “SPCDTNWRYYGDSCYGFFRHNLTWEESKQYCTDMNATLLKIDNRNIVEYIKARTHLIRWVGLSRQKSNEVWKWEDGSVISENMFEFLEDGKGNMNCAYFHNGKMHPTFCENKHYLMCERKAG” was “soluble”; that for “MRQRIAVVGGGPAGLAFARVMHRHDRSVTVLERDPAPDARPPGGTLDLHEGLGRLAMDKAGLSAEFEALSRPEGQAMRILDTDGTVLRDWRPDPAERANPEIDRGQLRDLLLGPLDVRWGQGVTKVVPGGRDGVLVHFEDGRQEAFDLVVGADGAWSRTRPAVSPVTPHYTGVTSVETSLDDVDTRHPDLARLVGDGSVAVYGVNRAVVAQRNSGGHVKVHAQFRAPLDWHAHLDLGDAEAVRSRLLTLFDGWTAPVLDLLRHGTGFVHRPLHVLPVSHTWTHVPGVTLLGDAAHLMPPLGAGANLALLEGAELAESLADGSADPDDAVRAFEERMWARAGRWAKITAAGLERLVSPDPAAALAVFDQVQPSRLEHHHHHH” was “not soluble”; that for “MRIRRRDEKENQEYKKGLWTVEEDNILMDYVLNHGTGQWNRIVRKTGLKRCGKSCRLRWMNYLSPNVNKGNFTEQEEDLIIRLHKLLGNRWSLIAKRVPGRTDNQVKNYWNTHLSKKLVGDYSSAVKTTGEDDDSPPSLFITAATPSSCHHQQENIYENIAKSFNGVVSASYEDKPKQELAQKDVLMATTNDPSHYYGNNALWVHDDDFELSSLVMMNFASGDVEYCL” was “not soluble”.

Regarding “MKRLLVIGIMYTMFFLIGNIHLHADERTNVKEITSLEEPTWIFQAGISKGKYHDRQDLGFILQRNTPLKVRQTNPNFKDKLTVRLLSNDSKNEKSIQVGNEWITIQGDTPLVPFIDTPYGEEPALLEYQVGNESATKPLPIYKQQGSVSQFFSTWDQFDGEYALIQGESFQLFIPKKDKELVRSLKDFQSLDELIAYYEDIFAMYDSIIGLDGSTVENKKSQNRYFLKADISGAGGAYYGANWTANSTDSTKMWLDKLSWGTLHEIAHGYQAGFDNQGIFTGEVSNNLFGVQYQYSKYGKKADQVGWLFNFGKKEQVERNLYNALMKENKNYDDLDLRQKLILLTMAKQKAGDEAFAKMYQGYRKLASNAAFKKGDHSLPDLMNQYYSENVQVDFTPVFERWGFKLNHKQIEMNRAKGYPAVTSLAYIVPESQLAKARALVDPDIPINSNFEIVRNQQIASLGLKGNLHIHLNTNEIDTLKGGKIKLKEGNTVIQEKTIETADINLQDVPNGIYTVEISGGKTDSMYHFSTYYAYVKEKDNSLTIDVNEMKVSNLVNETIQFLGLGDDQFAELNTDLEQERAVFTVTTKTPHSYYAGEKYASIELFNEKGEKIYTKEMEGTNVTVVKDIIPLKEGYRIKIYHDEVKKRLTSKATIINPMNKTNEIIMTKWGLKNTYLKNNPEENLMKRIDEEMEVIISNPLLKEIPMQKLEMKKNVWMAINMLSEPQKITYINKYKDSLYNE”, the “soluble on expression in E. coli” value was “not soluble”. With “MIVWSVANQKGGVGKTTTTITLAGLLSQQGKRVLLVDTDPHASLTTYLGYDSDGVPASLFDLFQLREYNEASVKPLILNTDIQGIDLIPAHMSLATLDRVMGNRSGMGLILKRALLALRHVYDYVLIDCPPILGVMMVNALAASDRILIPVQTEFLAMKGLERMVRTLAIMQKSRSREFKVTIVPTMYDKRTRASLQTLNQLKKDYPDKVWTSAVPIDTKFRDASLQRLPASHFAEGSRGVFAYKQLLLFLERLAIDE”, the “soluble on expression in E. coli” value is on record as “not soluble”.

“CTCSPSHPQDAFCNSDIVIRAKVVGKKLVKEGPFGTLVYTIKQMKMYRGFTKMPHVQYIHTEASESLCGLKLEVNKYQYLLTGRVYDGKMYTGLCNFVERWDQLTLSQRKGLNYRYHLGCN”: the “soluble on expression in E. coli” value is on record as “soluble”. Regarding “MSLTIYLMRHGQTYFNLWHKIQGWTDSPLTEEVIKQAKEIGRYFRENNINFDKGYSSTSERASDTLELATDHQLPYRRLKGLKEEYFGSFEAEDERLNPPVPYEDFFVKYGGESEDQVKMRMHDTMLKIARENADNSNILIVSHAGAIFNFLSTINMSIDQLFKIGFTNASVAKIEFKNDQFKVVEIINKKNNKFEVTQVNEGHHHHHH”, the “soluble on expression in E. coli” value is recorded as “soluble”. For “DQESCKGRCTEGFNVDKKCQCDELCSYYQSCCTDYTAECKPQVTRGDVFTM”, the “soluble on expression in E. coli” value is recorded as “soluble”.

In the case of “MTKSQIMDLSNFYQDTDYPSGRLIALLILSLGLTPAEIANLKKADFDTTFNILSIEKSQMKRILKLPEDLLPFLLESLEEDGDLVFEHNGKPYSRQWFFNQLTDFLNEKNEQQLTAQLLREQFILKQKENGKTMTELSRLLGLKTPITLERYYRLEHHHHHH”, the “soluble on expression in E. coli” value is listed as “not soluble”. The result for “MVNKMDIIPEITRKSITDLINNKERIDGRSLHEFRDISIETGVISKAEGSSRVKLGNTQIIVGVKPQIGEPFPDTPEMGVILTNSELLPMASPTFEPGPPDERSVELSRVVDRCIRESRMIDLEKLCIIEGSKVWMLFLDLHIIDYDGNLFDAAVLATVAALLDTRIPAAEVEDGEVVINREKMQPLPVNRKALMCTFAKIGNEIVLDPSLEEEDILTARISIGVTEEGSICAMQKGGEGPLTRDDVLKAVSIAVEKVPQLIEYLDKSMTP” reads “soluble”; that for “MGNSHSVTTALHSVLKQREIKVSTRTLETFIKEIERISPWYACSGSLTLSSWEKLREDLAKEQQNGKLKAGTMPLWKLVRSCLEDERCRPAIITGQAILEEAQDSMAETEWCERLGAPKKGKCAQSKKPFQRP”, “soluble”; that for “GMDIQNMPREQLGVCAEGNLHSVYLMFNANDNVESQLRPCIANVAQYIYELTDQYSDSAFNGFVAIGANYWDSLYPESRPEMLKPFPAMQEGNREAPAIEYDLFVHLRCDRYDILHLVANEISQMFEDLVELVEEERGFRFMDSRDLTGFVDGTENPKGRHRQEVALVGSEDPEFKGGSYIHVQKYAHNLSKWHRLPLKKQEDIIGRTKQDNIEYESEDKPLTSHIKRVNLKDENGKSIEILRQSMPYGSLKEQGLMFISTCRTPDHFEKMLHSMVFGDGAGNHDHLMHFTSALTGSSFFAPSLDFLMQFDN”, “soluble”. “MDKQLNDAPCGFLALSEEGSIIAANRTLIKILDYEPEQVIGQHMNMMLTIPAQLFCQLYFFPLLKLEHHIEEIYISLKARDGEEIPVLINAIARHDSGASVFDCVL”: the “soluble on expression in E. coli” value is “not soluble”.

Consider “MTIKVGINGFGRIGRIVFRAAQKRSDIEIVAINDLLDADYMAYMLKYDSTHGRFDGTVEVKDGHLIVNGKKIRVTAERDPANLKWDEVGVDVVAEATGLFLTDETARKHITAGAKKVVMTGPSKDNTPMFVKGANFDKYAGQDIVSNASCTTNCLAPLAKVINDNFGIIEGLMTTVHATTATQKTVDGPSHKDWRGGRGASQNIIPSSTGAAKAVGKVLPELNGKLTGMAFRVPTPNVSVVDLTVRLEKAATYEQIKAAVKAAAEGEMKGVLGYTEDDVVSTDFNGEVCTSVFDAKAGIALNDNFVKLVSWYDNETGYSNKVLDLIAHISK”, for which the “soluble on expression in E. coli” value was “soluble”. In the case of “MKSLESMEQFQQLKNEENVVFMFSAEWCPDCRFVDPFMPEVEEKYSDFSFYYVDRDEFIDLCVKLDVFGIPSFVAYNKGEETGRYVNKDRKTQEQIEEFIEGLK”, the “soluble on expression in E. coli” value is recorded as “not soluble”. With “MPVMDRAAMRTMATLQPSCMRWLCTTPSILDAAKAGWPISWAATPDSPATVTIRQFQASTCCRKKTFDVVVNTDVLEHVPEAELDCVLRDFRKLSTNAIIIPHLAKATRILPNGENAHCTIKTPSEWAQVFKRHYAHVYELPHHSAVHALFLCGDQERDVTALRGILEQYVAAKNEVRHHLLPLGKRIEKAIRLIRGKDINRLEHHHHHH”, the “soluble on expression in E. coli” value is “soluble”. As to “MSLKITHTEIYRFSIPMEPFVIATGTMHFAQNVLIRIHTDNGLYGLGECSAFPMIVGENQDTCLVMAREFAKLLPGKDPLDIPGRMNDLLGYADRNTTIKSAFDMALFDLAAKHAGQPLYQFLGGNRKKVETDMTIGISSPEKMAQLAQHYQAQGCSILKVKLGKDIHEDIERVAQIRAAVGGMMTIRLDANQGWSFDDALYGLGALAKYDIEFCEQPMRSWYDDRLPELQLNSPIAIMADESCYNHHDARRLINSRSCEYLNIKFSKSGGILEAQKIHEVALQHGMKCMMGGMLESRLAATAKLHFALSAPNIVFFDLDTCMLGHLIDPVVGGMSYEGFILDVPEAPGIGADADPAFLDECESWRIEGHHHHHH”, the “soluble on expression in E. coli” value is “soluble”. The result for “MSLSTIKDIARVAGVSVATVSRVVNNDPKVKEKTKLKVTKVMLDLNYTPNANARALVTQKNTTIGVIIPSLTDPFFASLANGVEQVARQQSMQLLLSTGLVSAESERQAINLLRERRCDVMVVHSKKLTDDELIALSEQIPGLVLIDRHIEQISHRCVWLDNLEGGKIAARHLLALNHQKFASISSKYQIEDPGLRLEGFTRELTGAGFAIDKELIEYGEPNLQGGEIATQHLLSSGKTFSALFVYNDAMAIGAISTLEDNGYRVPQDISVIGFDDVLLSRYSRPKLSTLNYPIEEMAQQAANLAIELTKERKAAKDEYKVESKTHKYVPRLVKRESTSLEGHHHHHH” reads “soluble”.
